B1: wild type enzyme: wild type phosphoenolpyruvate carboxylase of Escherichia coli, expressed from pS2 or pT2 (protein, UniProt P00864 1-883, looked up)
Phosphoenolpyruvate …: MNEQYSALRSNVSMLGKVLGETIKDALGEHILERVETIRKLSKSSRAGNDANRQELLTTLQNLSNDELLPVARAFSQFLNLANTAEQYHSISPKGEAASNPEVIARTLRKLKNQPELSEDTIKKAVESLSLELVLTAHPTEITRRTLIHKMVEVNACLKQLDNKDIADYEHNQLMRRLRQLIAQSWHTDEIRKLRPSPVDEAKWGFAVVENSLWQGVPNYLRELNEQLEENLGYKLPVEFVPVRFTSWMGGDRDGNPNVTADITRHVLLLSRWKATDLFLKDIQVLVSELSMVEATPELLALVGEEGAAEPYRYLMKNLRSRLMATQAWLEARLKGEELPKPEGLLTQNEELWEPLYACYQSLQACGMGIIANGDLLDTLRRVKCFGVPLVRIDIRQESTRHTEALGELTRYLGIGDYESWSEADKQAFLIRELNSKRPLLPRNWQPSAETREVLDTCQVIAEAPQGSIAAYVISMAKTPSDVLAVHLLLKEAGIGFAMPVAPLFETLDDLNNANDVMTQLLNIDWYRGLIQGKQMVMIGYSDSAKDAGVMAASWAQYQAQDALIKTCEKAGIELTLFHGRGGSIGRGGAPAHAALLSQPPGSLKGGLRVTEQGEMIRFKYGLPEITVSSLSLYTGAILEANLLPPPEPKESWRRIMDELSVISCDVYRGYVRENKDFVPYFRSATPEQELGKLPLGSRPAKRRPTGGVESLRAIPWIFAWTQNRLMLPAWLGAGTALQKVVEDGKQSELEAMCRDWPFFSTRLGMLEMVFAKADLWLAEYYDQRLVDKALWPLGKELRNLQEEDIKVVLAIANDSHLMADLPWIAESIQLRNIYTDPLNVLQAELLHRSRQAEKEGQEPDPRVEQALMVTIAGIAAGMRNTG

Legend:
[1] = tested on: Escherichia coli HB101; assay: Growth inhibition of Escherichia coli HB101 by aspartic acid analog compounds and recovery by additives; format: cell-based; settings: E. coli HB101 in M9 medium, absorbance at 660 nm; FIGS. 1-3
Method: It is proposed, as a general structure of an inhibitor of phosphoenolpyruvate carboxylase, that a C4 dicarboxylic acid structure is essentially provided. From such a viewpoint, various compounds were subjected to screening by the present inventors. Escherichia coli HB101 was cultivated in an LB medium, and transferred to M9 media (containing 20 μg/ml of thiamine and 3 μg/ml of each of Leu and Pro) containing any one of DL-2-amino-4-phosphonobutyric acid, bromosuccinic acid, meso-2,3-dibromosuccinic acid, 2,2-difluorosuccinic acid, 3-bromopyruvic acid, α-ketobutyric acid, α-ketoadipinic acid DL-threo-β-hydroxyaspartic acids L-aspartic acid β-metyl ester α-metyl-DL-aspartic acid, 2,3-diaminosuccinic acid or aspartic acid-β-hydrazide, and absorbance of the medium was measured at 660 nm with the passage of time, thereby growth was monitored.
Further, when these compounds were present at their growth inhibitory concentrations, it was investigated whether or not the inhibition was recovered by addition of nucleic acids (each of uridine, adenosine: 10 mg/dl), glutamic acid or amino acids of the aspartic acid family (Asp: 0.025%, each of Met, Thr, Lys: 0.1%).
Further, growth recovery of Escherichia coli, in the case of addition of the aforementioned inhibition recovering substances alone or as a mixture of 2 species or 3 species, is shown in FIGS. 4-6. […]

[2] = tested on: phosphoenolpyruvate carboxylase; assay: Sensitivity of phosphoenolpyruvate carboxylase activity to aspartic acid; format: biochemical, Escherichia coli
Description: When the microorganism transformed with the DNA sequence of the present invention as described above is cultivated, and this DNA sequence is expressed, then a mutant enzyme is obtained. It becomes apparent, by measuring the activity by adding aspartic acid to an enzyme reaction system, whether or not the mutant enzyme thus obtained has desensitized feedback inhibition by aspartic acid. It is possible for the measurement of the enzyme activity to use a spectrometric method (Yoshinage, T., Izui, K. and Katsuki, H., J. Biochem., 68, 747-750 (1970)) and the like.
(§1) Sensitivity to aspartic acid was investigated in accordance with a known method (Yoshinaga, T., Izui, K. and Katsuki, H., J. Biochem., 68, 747-750 (1970)). Namely, as a result of measurement of the enzyme activity produced by each of the transformants or Escherichia coli harboring pS2 in the presence of acetyl-coenzyme A known to affect the activity in an activity measurement system at a concentration of 0.1 mM or 1 mM, sensitivity to aspartic acid was measured as shown in FIGS. 9 and 10.
as §1, with “activity” for “activity produced by each of the transformants or Escherichia coli harboring pS2”, “of 1” for “of 0.1”, “or 2” for “or 1”, “in FIG. 12.” for “in FIGS. 9 and 10.”
as §1, with “activity” for “activity produced by each of the transformants or Escherichia coli harboring pS2”, “of 1” for “of 0.1”, “or 2” for “or 1”, “in FIG. 13.” for “in FIGS. 9 and 10.”

Molecule | growth inhibition of Escherichia coli [1] | enzyme activity at high aspartic acid concentration (sensitivity to aspartic acid) ([2]; Example 2, acetyl-coenzyme A 0.1 mM or 1 mM, FIGS. 9 and 10) | enzyme activity at high aspartic acid concentration (sensitivity to aspartic acid) ([2]; Example 6 <3>, pT2R438C (438th Arg to Cys), acetyl-coenzyme A 1 mM or 2 mM, FIG. 12) | enzyme activity at high aspartic acid concentration (sensitivity to aspartic acid) ([2]; Example 6 <5>, pT2K620S, acetyl-coenzyme A 1 mM or 2 mM, FIG. 13)
N[C@H](C(=O)O)[C@H](O)C(=O)O (relative stereo) [DL-threo-β-hydroxyaspartate] | growth inhibition | – | – | –
NNC(=O)CC(N)C(=O)O (stereo not drawn) [aspartate-β-hydrazide] | growth inhibition | – | – | –
B1 | – | loses its activity | substantially loses its activity | substantially loses its activity

— US5919694A, “Mutant phosphoenolpyruvate carboxylase, its gene, and production method of amino acid” (Ajinomoto Co., Inc., priority 1993, dated 1999)
